Laboratory results as given in patent publication US20150132813A1, “BIOSYNTHETIC PATHWAYS, RECOMBINANT CELLS, AND METHODS” (REGENTS OF THE UNIVERSITY OF MINNESOTA, priority 2012, published 2015).

Experiments:
[1] = molecular target: indolepyruvate decarboxylase (IPDC) (Salmonella enterica, UniProt H9L492); assay: Coupled enzymatic assay of IPDC (NADH absorbance at 340 nm); settings: substrate of IPDC, pH 6.8
Protocol: (§1) The kinetic parameters were measured by monitoring the NADH absorbance at 340 nm.
(§2) The kinetic parameters were measured by monitoring the NADH absorbance at 340 nm. The activity of IPDC was measured using a coupled enzymatic assay method.
(§3) The activity of IPDC was measured using a coupled enzymatic assay method. Excess of an appropriate aldehyde dehydrogenase (AldH for 2-Keto-3-methylvalerate and KDHba for 2-Ketocaproate) was used to oxidize aldehyde into acid while cofactor NAD+ was reduced to NADH. The assay mixture contained 0.5 mM NAD+, 0.1 μM appropriate aldehyde dehydrogenase and corresponding 2-keto acid in the range of 1 mM to 8 mM in assay buffer (50 mM NaH2PO4, pH 6.8, 1 mM MgSO4, 0.5 mM ThDP) with a total volume of 78 μL. To start the reaction, 2 μL of 1 μM IPDC was added and generation of NADH was monitored at 340 nm. Kinetic parameters (kcat and KM) were determined by fitting initial rate data to the Michaelis-Menten equation.

[2] = molecular target: T1, 3-hydroxypropionaldehyde dehydrogenase AldH (Escherichia coli, UniProt P23883); assay: Enzymatic assay of AldH (NADH absorbance at 340 nm); settings: substrate of AldH; pH 8.0, 0.5 mM NAD+
T1 sequence (P23883 1-495): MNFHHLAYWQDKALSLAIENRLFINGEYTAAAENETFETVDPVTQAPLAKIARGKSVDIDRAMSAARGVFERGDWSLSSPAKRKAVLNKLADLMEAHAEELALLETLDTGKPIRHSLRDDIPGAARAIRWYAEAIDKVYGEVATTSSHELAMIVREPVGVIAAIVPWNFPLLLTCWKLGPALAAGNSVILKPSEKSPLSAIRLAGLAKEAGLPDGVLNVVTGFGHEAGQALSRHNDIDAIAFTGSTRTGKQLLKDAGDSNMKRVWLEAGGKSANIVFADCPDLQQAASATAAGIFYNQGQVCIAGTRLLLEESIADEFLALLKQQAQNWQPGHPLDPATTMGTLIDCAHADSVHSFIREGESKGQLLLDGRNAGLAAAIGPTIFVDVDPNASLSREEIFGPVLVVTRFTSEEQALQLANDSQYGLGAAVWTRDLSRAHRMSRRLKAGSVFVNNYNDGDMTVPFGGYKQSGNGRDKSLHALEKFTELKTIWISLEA
Protocol: as §1
(§4) Enzymatic assay of KDHba consisted of 0.5 mM NAD+ and valeraldehyde in the range of 50 μM to 400 μM in assay buffer (50 mM NaH2PO4, pH 8.0, 1 mM DTT) with a total volume of 78 μL. To start the reaction, 2 μL of 1 M KDHba was added and generation of NADH was monitored at 340 nm (extinction coefficient, 6.22 mM^−1 cm^−1). A similar protocol was used for AldH with 2-Methyl butyraldehyde concentrations in the range of 1 mM to 6 mM.

[3] = tested on: α-ketoglutaric semialdehyde dehydrogenase KDHba; settings: substrate of KDHba; from Xiong et al., Sci Rep 2012; cited from earlier work
PA1 strain [4] = assay: Shake flask fermentation for pentanoic acid production (PA1 strain with pIPA1, pIPA3 and a DC-DH plasmid), HPLC; settings: aldehyde dehydrogenase varied, wild-type KIVD as 2-ketoacid decarboxylase; 40 g/L glucose, 48 hours, 30° C.
PA1 strain [5] = assay: Shake flask fermentation for 2-methylbutyric acid production (PA1 strain with pIPA1, pIPA2 and a DC-DH plasmid), HPLC; settings: aldehyde dehydrogenase varied, wild-type KIVD as 2-ketoacid decarboxylase; 40 g/L glucose, 48 hours, 30° C.
CCCCC(=O)C(=O)O = assay: purified protein, by the assay type; settings: other: substrate of IPDC, coupled assay, pH 6.8
Protocol: as §1, §2, §3
CCC(C)C(=O)C(=O)O = assay: purified protein, by the assay type; settings: other: substrate of IPDC, coupled assay, pH 6.8
Protocol: as §1, §2, §3

[6] = substrate: CCC(C)C=O; assay: purified protein, by the assay type; settings: other: substrate of AldH, pH 8.0, 0.5 mM NAD+, 30.0 °C
Protocol: as §1, §4

Chain of indolepyruvate decarboxylase (IPDC) (H9L492 1-550): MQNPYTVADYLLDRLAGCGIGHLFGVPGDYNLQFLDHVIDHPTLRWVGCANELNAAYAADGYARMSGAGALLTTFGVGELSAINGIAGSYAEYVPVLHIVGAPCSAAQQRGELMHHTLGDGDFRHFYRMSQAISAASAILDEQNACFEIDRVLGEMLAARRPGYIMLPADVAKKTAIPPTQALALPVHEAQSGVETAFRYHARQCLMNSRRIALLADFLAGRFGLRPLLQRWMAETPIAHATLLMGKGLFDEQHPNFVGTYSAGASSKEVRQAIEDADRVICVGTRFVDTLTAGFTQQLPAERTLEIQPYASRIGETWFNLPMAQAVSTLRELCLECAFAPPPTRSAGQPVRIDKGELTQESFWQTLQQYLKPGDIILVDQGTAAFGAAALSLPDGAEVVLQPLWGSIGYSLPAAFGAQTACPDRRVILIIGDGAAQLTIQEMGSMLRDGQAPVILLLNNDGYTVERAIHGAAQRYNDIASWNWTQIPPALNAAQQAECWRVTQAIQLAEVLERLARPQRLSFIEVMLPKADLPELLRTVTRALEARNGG

Molecule: CCC(C)C(=O)C(=O)O (stereo not drawn) [2-Keto-3-methylvalerate, 2-keto-3-methylvalerate]
- kcat [1]: 4.13 s⁻¹

Molecule: CCCCC(=O)C(=O)O [2-Ketocaproate, 2-ketocaproate]
- kcat [1]: 1.89 s⁻¹

Molecule: CCC(C)C=O (stereo not drawn) [2-Methyl butyraldehyde, 2-methyl butyraldehyde]
- kcat [2]: 3.55 s⁻¹

Molecule: CC(C)C=O [isobutyraldehyde]
- Km [3]: 34.5 mM

Molecule: CC(C)CC=O [isovaleraldehyde]
- Km [3]: 7.62 mM

Molecule: YdcW: γ-aminobutyraldehyde dehydrogenase YdcW from E. coli
- pentanoic acid titer (PA1 strain [4]): 0.22 g/L
- 2-methylbutyric acid titer (PA1 strain [5]): 0.23 g/L

Molecule: indolepyruvate decarboxylase (IPDC) (Salmonella enterica subsp. enterica serovar Typhimurium str. LT2)
- Km (CCCCC(=O)C(=O)O): 0.63 mM
- kcat (CCCCC(=O)C(=O)O): 1.89 ± 0.06 s⁻¹
- kcat/Km (CCCCC(=O)C(=O)O): 3000 M⁻¹ s⁻¹
- Km (CCC(C)C(=O)C(=O)O): 0.85 mM
- kcat (CCC(C)C(=O)C(=O)O): 4.13 ± 0.21 s⁻¹
- kcat/Km (CCC(C)C(=O)C(=O)O): 4860 M⁻¹ s⁻¹

B1: Al dB: acetaldehyde dehydrogenase AldB from E. coli (protein, UniProt P37685 1-512, looked up)
Aldehyde dehydrogenase B: MTNNPPSAQIKPGEYGFPLKLKARYDNFIGGEWVAPADGEYYQNLTPVTGQLLCEVASSGKRDIDLALDAAHKVKDKWAHTSVQDRAAILFKIADRMEQNLELLATAETWDNGKPIRETSAADVPLAIDHFRYFASCIRAQEGGISEVDSETVAYHFHEPLGVVGQIIPWNFPLLMASWKMAPALAAGNCVVLKPARLTPLSVLLLMEIVGDLLPPGVVNVVNGAGGVIGEYLATSKRIAKVAFTGSTEVGQQIMQYATQNIIPVTLELGGKSPNIFFADVMDEEDAFFDKALEGFALFAFNQGEVCTCPSRALVQESIYERFMERAIRRVESIRSGNPLDSVTQMGAQVSHGQLETILNYIDIGKKEGADVLTGGRRKLLEGELKDGYYLEPTILFGQNNMRVFQEEIFGPVLAVTTFKTMEEALELANDTQYGLGAGVWSRNGNLAYKMGRGIQAGRVWTNCYHAYPAHAAFGGYKQSGIGRETHKMMLEHYQQTKCLLVSYSDKPLGLF
- pentanoic acid titer (PA1 strain [4]): 0.42 g/L
- 2-methylbutyric acid titer (PA1 strain [5]): 2.31 g/L

B2: PadA: phenylacetaldehyde dehydrogenase PadA from E. coli (protein, UniProt P80668 1-499, looked up)
Phenylacetaldehyde …: MTEPHVAVLSQVQQFLDRQHGLYIDGRPGPAQSEKRLAIFDPATGQEIASTADANEADVDNAVMSAWRAFVSRRWAGRLPAERERILLRFADLVEQHSEELAQLETLEQGKSIAISRAFEVGCTLNWMRYTAGLTTKIAGKTLDLSIPLPQGARYQAWTRKEPVGVVAGIVPWNFPLMIGMWKVMPALAAGCSIVIKPSETTPLTMLRVAELASEAGIPDGVFNVVTGSGAVCGAALTSHPHVAKISFTGSTATGKGIARTAADHLTRVTLELGGKNPAIVLKDADPQWVIEGLMTGSFLNQGQVCAASSRIYIEAPLFDTLVSGFEQAVKSLQVGPGMSPVAQINPLVSRAHCDKVCSFLDDAQAQQAELIRGSNGPAGEGYYVAPTLVVNPDAKLRLTREEVFGPVVNLVRVADGEEALQLANDTEYGLTASVWTQNLSQALEYSDRLQAGTVWVNSHTLIDANLPFGGMKQSGTGRDFGPDWLDGWCETKSVCVRY
- pentanoic acid titer (PA1 strain [4]): 2.12 g/L
- 2-methylbutyric acid titer (PA1 strain [5]): 2.26 g/L

B3: GabD: succinate semialdehyde dehydrogenase GabD from E. coli (protein, UniProt P25526 1-482, looked up)
Succinate-semialdehyde …: MKLNDSNLFRQQALINGEWLDANNGEAIDVTNPANGDKLGSVPKMGADETRAAIDAANRALPAWRALTAKERATILRNWFNLMMEHQDDLARLMTLEQGKPLAEAKGEISYAASFIEWFAEEGKRIYGDTIPGHQADKRLIVIKQPIGVTAAITPWNFPAAMITRKAGPALAAGCTMVLKPASQTPFSALALAELAIRAGVPAGVFNVVTGSAGAVGNELTSNPLVRKLSFTGSTEIGRQLMEQCAKDIKKVSLELGGNAPFIVFDDADLDKAVEGALASKFRNAGQTCVCANRLYVQDGVYDRFAEKLQQAVSKLHIGDGLDNGVTIGPLIDEKAVAKVEEHIADALEKGARVVCGGKAHERGGNFFQPTILVDVPANAKVSKEETFGPLAPLFRFKDEADVIAQANDTEFGLAAYFYARDLSRVFRVGEALEYGIVGINTGIISNEVAPFGGIKASGLGREGSKYGIEDYLEIKYMCIGL
- pentanoic acid titer (PA1 strain [4]): 0.54 g/L
- 2-methylbutyric acid titer (PA1 strain [5]): 0.14 g/L

B4: 3-hydroxypropionaldehyde dehydrogenase AldH (Escherichia coli K-12) (protein)
chain: T1 sequence (P23883 1-495)
- pentanoic acid titer (PA1 strain [4]): 1.76 g/L
- Km [6]: 1.89 mM
- kcat [6]: 3.55 ± 0.17 s⁻¹
- kcat/Km [6]: 1880 M⁻¹ s⁻¹
- 2-methylbutyric acid titer (PA1 strain [5]): 2.51 g/L
